From the supplement of paper PMC10567573

B1: TIA1 (parent)
chain: TYECRCIGEEKEMWNFGEKYARF

Variants of: B1
Assay: protein stability index of a GFP-peptide fusion (GPS, HEK-293T) (PSI 1-6); higher = more stable
Details: c terminus: native
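Note: lentivirally expressed fusions sorted by FACS into six bins by GFP to DsRed ratio, PSI derived from sequencing read proportions per bin multiplied by bin number.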

Row | Variant | protein stability index
1 | TYECRCIGEEKEKWNFGEKYARF [M13K] | 1.87
2 | TYECRCIGTEKEMWNFGEKYARF [E9T] | 1.61
3 | TYECRCIGVEKEMWNFGEKYARF [E9V] | 1.92
4 | TYECRCIGSEKEMWNFGEKYARF [E9S] | 1.84
5 | TYECRCIGIEKEMWNFGEKYARF [E9I] | 1.89
6 | TYECRCIGREKEMWNFGEKYARF [E9R] | 1.88
7 | TYECRCIGLEKEMWNFGEKYARF [E9L] | 3.02
8 | TYECRCIGNEKEMWNFGEKYARF [E9N] | 2.29
9 | TYECRCIGKEKEMWNFGEKYARF [E9K] | 2.49
10 | TYECRCIGPEKEMWNFGEKYARF [E9P] | 1.82
11 | TYECRCIGYEKEMWNFGEKYARF [E9Y] | 1.85
12 | TYECRCIGMEKEMWNFGEKYARF [E9M] | 1.33
13 | TYECRCIGQEKEMWNFGEKYARF [E9Q] | 2.46
14 | TYECRCIGWEKEMWNFGEKYARF [E9W] | 1.74
15 | TYECRCIGEEKEMWNFGFKYARF [E18F] | 2.24
16 | TYECRCIGEEKEMWNFGKKYARF [E18K] | 2.49
17 | TYECRCIGEEKEMWNFGCKYARF [E18C] | 2.41
18 | TYECRCIGEEKEMWNFGTKYARF [E18T] | 1.67
19 | TYECRCIGEEKEMWNFGNKYARF [E18N] | 1.79
20 | TYECRCIGEEKEMWNFGSKYARF [E18S] | 1.97
21 | TYECRCIGEEKEMWNFGLKYARF [E18L] | 1.94
22 | TYECRCIGEEKEMWNFGMKYARF [E18M] | 1.81
23 | TYECRCIGEEKEMWNFGDKYARF [E18D] | 2.22
24 | TYECRCIGEEKEMWNFGVKYARF [E18V] | 3
25 | TYECRCIGEEKEMWNFGPKYARF [E18P] | 1.65

Row | Variant | protein stability index
26 | TYECRCIGEEKEMWNFGHKYARF [E18H] | 2.97
27 | TYECRCIGEEKEMWNFGIKYARF [E18I] | 2.3
28 | TYECRCIGEEKEMWNFGWKYARF [E18W] | 3.12
29 | TYECRCIGEEKEMWNFGAKYARF [E18A] | 1.27
30 | TYECRCIGEEKEMWNFGQKYARF [E18Q] | 1.8
31 | TYECRCIGEEKEMWNFGYKYARF [E18Y] | 1.89
32 | TYECRCIGEEKEMENFGEKYARF [W14E] | 2.51
33 | TYECRCIGEEKEMYNFGEKYARF [W14Y] | 2.65
34 | TYECRCIGEEKEMGNFGEKYARF [W14G] | 2.88
35 | TYECRCIGEEKEMFNFGEKYARF [W14F] | 2.39
36 | TYECRCIGEEKEMQNFGEKYARF [W14Q] | 2.24
37 | TYECRCIGEEKEMCNFGEKYARF [W14C] | 2.17
38 | TYECRCIGEEKEMTNFGEKYARF [W14T] | 2.22
39 | TYECRCIGEEKEMVNFGEKYARF [W14V] | 2.34
40 | TYECRCIGEEKEMDNFGEKYARF [W14D] | 2.61
41 | TYECRCIGEEKEMPNFGEKYARF [W14P] | 2.31
42 | TYECRCIGEEKEMANFGEKYARF [W14A] | 2.14
43 | TYECRCIGEEKEMINFGEKYARF [W14I] | 2.28
44 | TYECRCIGEEKEMLNFGEKYARF [W14L] | 1.64
45 | TYECRCIGEEKEMKNFGEKYARF [W14K] | 1.6
46 | TYECRCIGEEKEMSNFGEKYARF [W14S] | 2.98
47 | TYECRCIGEEKEMNNFGEKYARF [W14N] | 2.1
48 | TYECRCIGEEKEMMNFGEKYARF [W14M] | 2.27
49 | TYECRCIGEEKEMHNFGEKYARF [W14H] | 2.49
50 | TYECRCIGECKEMWNFGEKYARF [E10C] | 2.25

Row | Variant | protein stability index
51 | TYECRCIGEVKEMWNFGEKYARF [E10V] | 1.58
52 | TYECRCIGEQKEMWNFGEKYARF [E10Q] | 1.71
53 | TYECRCIGEGKEMWNFGEKYARF [E10G] | 1.86
54 | TYECRCIGEWKEMWNFGEKYARF [E10W] | 2.52
55 | TYECRCIGEAKEMWNFGEKYARF [E10A] | 2.85
56 | TYECRCIGELKEMWNFGEKYARF [E10L] | 2.25
57 | TYECRCIGEPKEMWNFGEKYARF [E10P] | 2.12
58 | TYECRCIGETKEMWNFGEKYARF [E10T] | 1.43
59 | TYECRCIGESKEMWNFGEKYARF [E10S] | 2.23
60 | TYECRCIGEHKEMWNFGEKYARF [E10H] | 2.49
61 | TYECRCIGEIKEMWNFGEKYARF [E10I] | 2.56
62 | TYECRCIGEDKEMWNFGEKYARF [E10D] | 1.99
63 | TYECRCIGENKEMWNFGEKYARF [E10N] | 1.83
64 | TYECRCIGEEKEMWNFGECYARF [K19C] | 1.85
65 | TYECRCIGEEKEMWNFGESYARF [K19S] | 2.27
66 | TYECRCIGEEKEMWNFGERYARF [K19R] | 2.44
67 | TYECRCIGEEKEMWNFGEFYARF [K19F] | 2.16
68 | TYECRCIGEEKEMWNFGEDYARF [K19D] | 3.32
69 | TYECRCIGEEKEMWNFGEIYARF [K19I] | 1.62
70 | TYECRCIGEEKEMWNFGEVYARF [K19V] | 1.76
71 | TYECRCIGEEKEMWNFGEMYARF [K19M] | 1.29
72 | TYECRCIGEEKEMWNFGEGYARF [K19G] | 2.51
73 | TYECRCIGEEKEMWNFGETYARF [K19T] | 2.06
74 | TYECRCIGEEKEMWNFGEQYARF [K19Q] | 2.41
75 | TYECRCIGEEKEMWNFGEYYARF [K19Y] | 4.2

Row | Variant | protein stability index
76 | TYECRCIGEEKEMWNFGEAYARF [K19A] | 1.65
77 | TYECRCIGEEKEMWNFGELYARF [K19L] | 1.59
78 | TYECRCIGEEKEMWNFGEPYARF [K19P] | 3.04
79 | TYECRCIGEEKEMWNFGEEYARF [K19E] | 3.18
80 | TYECRCIGEEKCMWNFGEKYARF [E12C] | 2.08
81 | TYECRCIGEEKRMWNFGEKYARF [E12R] | 1.42
82 | TYECRCIGEEKWMWNFGEKYARF [E12W] | 2.5
83 | TYECRCIGEEKGMWNFGEKYARF [E12G] | 2.71
84 | TYECRCIGEEKSMWNFGEKYARF [E12S] | 2.21
85 | TYECRCIGEEKPMWNFGEKYARF [E12P] | 2.35
86 | TYECRCIGEEKYMWNFGEKYARF [E12Y] | 1.3
87 | TYECRCIGEEKFMWNFGEKYARF [E12F] | 3.56
88 | TYECRCIGEEKQMWNFGEKYARF [E12Q] | 2.3
89 | TYECRCIGEEKVMWNFGEKYARF [E12V] | 1.59
90 | TYECRCIGEEKMMWNFGEKYARF [E12M] | 1.88
91 | TYECRCIGEEKLMWNFGEKYARF [E12L] | 2.33
92 | TYECRCIGEEKKMWNFGEKYARF [E12K] | 1.4
93 | TYECRCIGEEKTMWNFGEKYARF [E12T] | 2.19
94 | TYECRCIGEEKNMWNFGEKYARF [E12N] | 2.08
95 | TYECRCIGEEKIMWNFGEKYARF [E12I] | 1.39
96 | TYECRCIGEEKHMWNFGEKYARF [E12H] | 2.03
97 | TYECRCIGEEKDMWNFGEKYARF [E12D] | 1.91
